Assay results taken from publication PMC6597238, “The GluTR-binding protein is the heme-binding factor for feedback control of glutamyl-tRNA reductase” (eLife, 2019).
Values belong to the binder of their own block, whether it stands above or below them.

Experiments:
Conditions in all cases: both partners purified
[1] = target: T1, 6xHIS-GluTR1 (glutamyl-tRNA reductase 1) (Arabidopsis, UniProt P42804 62-543); test: MST; as a3 with addition of 1 µM hemin
T1 construct: glutamyl-tRNA reductase 1 (GluTR1), Arabidopsis, encoded by HEMA1; Czarnecki et al., 2011; Wang et al., 2018; source: E. coli BL21, purified (Ni-NTA)
T1 sequence (looked up): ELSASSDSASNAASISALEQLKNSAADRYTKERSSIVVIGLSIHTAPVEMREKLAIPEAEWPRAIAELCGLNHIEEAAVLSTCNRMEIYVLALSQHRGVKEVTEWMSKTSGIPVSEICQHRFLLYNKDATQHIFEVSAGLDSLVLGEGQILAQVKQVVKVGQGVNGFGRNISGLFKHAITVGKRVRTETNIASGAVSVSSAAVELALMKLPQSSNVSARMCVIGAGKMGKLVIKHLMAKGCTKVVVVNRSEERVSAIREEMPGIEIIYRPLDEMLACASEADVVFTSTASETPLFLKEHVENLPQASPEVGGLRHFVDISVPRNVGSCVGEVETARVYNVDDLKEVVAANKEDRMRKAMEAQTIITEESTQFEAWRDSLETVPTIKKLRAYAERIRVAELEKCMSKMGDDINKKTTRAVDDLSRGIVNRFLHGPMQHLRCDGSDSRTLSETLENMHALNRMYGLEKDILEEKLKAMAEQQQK

[2] = target: T1, 6xHIS-GluTR1 (glutamyl-tRNA reductase 1); test: MST; 200 nM labeled 6xHIS-GBP-FLUO constant, 6xHIS-GluTR1 titrated from 7.5 µM, PBS, Monolith NT.115; Kd from initial fluorescence quenching; no hemin; n = 2
[3] = target: T2, 6xHIS-GluTR1-FLUO (fluorophore-labeled 6xHIS-GluTR1) (Arabidopsis, UniProt P42804 62-543, fluorophore from the RED-NHS (Amine Reactive) protein labeling kit (second generation)); test: MST; as a5 with addition of 1 µM hemin
T2 construct: glutamyl-tRNA reductase 1 (GluTR1), Arabidopsis, encoded by HEMA1; same construct as m1, labeled; m1 after amine-reactive labelling; also called labeled HIS-GluTR; source: E. coli BL21, purified (Ni-NTA), labeled with the RED-NHS protein labeling kit
T2 sequence (looked up): T1 sequence (looked up)

[4] = target: T2, 6xHIS-GluTR1-FLUO (fluorophore-labeled …); test: MST; 200 nM labeled 6xHIS-GluTR1-FLUO constant, 6xHIS-GBP titrated from 7.5 µM, PBS, Monolith NT.115; MST signal 1.5 s after turning on the laser; no hemin; n = 2

- Kd [1]: 931 nM
- Kd [2]: 65 nM
B1: 6xHIS-GBP-FLUO (fluorophore-labeled 6xHIS-GBP) (natural protein, Arabidopsis, UniProt Q9LU39 43-317, looked up)
chain: SVSTTLDTPATASTHKPFPAEVSRSIMELSSVGTLSTLTHDGWPLGVGVRFAVDKDGTPVLCLNRSVSPDKRSALHVQLEQCGLRTPQCTIQGSIGRPGDDTVLKRLSATWREKFGEEVKEDSLYVVAVDRVLQMEDFMEDGIWVASSDYKNASPDPLRDIAEDIVNQINANNMEDIFRFCNVYVDLDFVVSETKMIWMDRLGFDLRVWSPRGVYDVRIPFPMEVTDEKGAKSSFNGMSQLAWEVEKSYCPADFNKVKLLKQVVGSSHSHKGGGQ
modifications: fluorophore from the RED-NHS (Amine Reactive) protein labeling kit (second generation)
notes: same construct as m3, labeled; m3 after amine-reactive labelling; also called labeled HIS-GBP; labeled GBP; source: E. coli BL21, purified (Ni-NTA), labeled with the RED-NHS protein labeling kit

- Kd [3]: 806 nM
- Kd [4]: 113 nM
B2: 6xHIS-GBP (GluTR-binding protein) (natural protein, Arabidopsis, UniProt Q9LU39 43-317, looked up)
chain: B1 chain
notes: Czarnecki et al., 2011; Wang et al., 2018; probably without the transit peptide; source: E. coli BL21, purified (Ni-NTA)
